Experimental data reported in the supplement of paper PMC12042874.
± gives the uncertainty stated by the source.

assay: amyloid nucleation score (Sup35N fusion, yeast selection) (log enrichment); library NNK2; higher = more nucleation; inactive = no reads after selection
In short: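 In psi-negative yeast, Sup35N fusions carrying peptides of 20 random codons were induced with 100 μM copper sulfate for 24 hours. The cells then grew 7 days at 30°C on medium lacking adenine and uracil, and plasmid inserts from input and output were Illumina-sequenced, excluding sequences with under 100 input reads. Nucleation score is the DiMSum log enrichment of output over input reads, centred on the mode score of non-aggregating sequences.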

Substance | amyloid nucleation score
KFPYVHLVFLARIYSF | -0.536 ± 1.1
KFTLGHVNIVWNMVVYATQE | 8.24 ± 0.083
KGAMA | 0.539 ± 0.39
KGMNCVCACAINRPYSIVLQ | 1.41 ± 0.15
KGSGRSQLSSIVCVFFGQTV | -0.292 ± 0.49
KHCMCYLLWNI | -0.422 ± 1.1
KHRRYFFCVGSIRWASVYKT | inactive
KHSDSTGARQWGNNVYKLDD | 0.366 ± 0.2
KICSYPR | 2.46 ± 0.11
KIEGHGFYYLFNWTA | -0.833 ± 0.78
KIKPLIIKNMCGNNTGPGIQ | inactive
KILFPVR | -0.927 ± 1
KITCVITNALCSLTERADR | 9.394 ± 0.069
KIWDCSMYTF | -1.07 ± 0.55
KIWMSLHLRELRLC | 0.569 ± 0.12
KKFSSMYRSEFGNSI | -0.65 ± 0.41
KKNEIEVECGPNCGTGTLVF | 5.04 ± 0.054
KKSSVPTSYLYVNENFLTVL | 6.965 ± 0.054
KKVVLRPS | 4.97 ± 0.051
KLGFWVGSWLSSRSVDCSCM | 1.33 ± 0.35
KLGIDRGTVCLWLSV | 0.401 ± 0.14
KLGLSSIHFSGSMFVRCTFC | 4.503 ± 0.041

Substance | amyloid nucleation score
KLHRLTGGHYDPNCDNGPVD | 3.68 ± 0.059
KLHSVQLNTRVLIN | 0.219 ± 0.26
KLIVMGTNPGRVGNGWKRKS | 0.53 ± 0.3
KLMVPA | 0.248 ± 0.28
KLSLNVLGSRSERWLLLFSC | -0.291 ± 0.79
KLTFTVMYTFCKVLSRDVAC | 3.1 ± 0.1
KLVDLKVRFDSHLDNLEVAL | -0.204 ± 0.46
KLVISAFPPIRNMVYTKCSK | -0.446 ± 1.1
KMKAGAMWCGSRIASKSRRG | 1.51 ± 0.15
KMLPSGARDLMPMDLLDFMM | -0.234 ± 0.25
KMSVLG | -0.936 ± 0.64
KMTLLFARQFGV | 2.93 ± 0.12
KMYYGSKNTKSDLARTYGTL | 1.61 ± 0.44
KNCVHE | -0.076 ± 0.79
KNFSCVN | 0.706 ± 0.74
KNKTL | 0.576 ± 0.46
KNLDQYCCCFNALTLSVSRS | 7.473 ± 0.051
KNSIDQVTWTCNRYLKLVLS | -0.402 ± 0.39
KNSLKVLLNRRLRVCGSQLN | -0.309 ± 0.45
KNWVYVAWRRENYEQPFIR | -0.299 ± 1
KNYGYNIN | 1.83 ± 0.17
KPAERLFKCRSTE | 0.014 ± 0.49

Substance | amyloid nucleation score
KPDCVLTTGFTSSLRFIMKK | -0.007 ± 0.55
KPDTMNFWVVLALNFDLGRT | 2.77 ± 0.099
KQGKRSTAHRSIVPLSFRH | 1.58 ± 0.14
KRGKPK | inactive
KRNVLRVTSCHKEYSVGSVP | 0.739 ± 0.22
KRNVRFVGMITKRMSRSRPI | 0.511 ± 0.43
KRSFVIRNLGFCALRLHISV | 4.63 ± 0.11
KRSTNWKDC | -1.07 ± 0.64
KRWLKMWKRWQRRFMCGLLS | 0.472 ± 0.32
KSASRYNRQWNRHSYWMANR | -0.064 ± 0.34
KSCSMMFILWVTAGMDRWGH | 6.25 ± 0.09
KSFGCIRKCEDCYIW | 0.74 ± 0.51
KSHSDSFDYW | 0.233 ± 0.74
KSIESGRIRK | 0.627 ± 0.35
KSINNC | 0.181 ± 0.26
KSINSFYKRIDVVWGMRSQS | -0.984 ± 0.33
KSIRAYYYVSRQ | 0.263 ± 0.25
KSLDFR | 0.493 ± 0.46
KSRWRQRILVPIPWWARHVE | 0.239 ± 0.29
KSSNHITRFRSHSMETSRMV | inactive
KSVFYIWFSHRVSVVAVRQL | 5.13 ± 0.093
KSVSVGQVRTCPYSFISPVL | 0.247 ± 1

Substance | amyloid nucleation score
KTIPSGVVGWVSEGQRSTNR | 7.87 ± 0.08
KTLVKESCCNLNSRSDLWGL | -0.754 ± 0.76
KVINFGCTTFDYGYATYFGQ | 6.66 ± 0.055
KVLFTGFFANVGFSSSVRAN | -0.567 ± 1.1
KVLTCRIYSIWVLIC | 0.009 ± 0.32
KVMVRLGSNSAAKYFYVNRV | 3.84 ± 0.057
KVRGPSNNVSSQKAHDRFDS | 0.277 ± 0.28
KVSHAWM | 0.704 ± 0.53
KVTSRTTGMIVSFFMPCLEM | 5.97 ± 0.072
KWFLGCRVDHRMRVRMCLQ | -0.292 ± 0.54
KWMFEVTVYGRWYVTHQAGL | 4.827 ± 0.041
KWVGWMWGYEGSLWSSNLWR | 0.242 ± 0.77
KYCDWYL | -0.274 ± 0.22
KYDGAFQRGGIIQISYLCLW | 4.87 ± 0.071
KYENYLCITFMGCLLGMRSE | inactive
KYFIASLDQFSYISVHNEVV | inactive
KYGNFVFTFLLINPF | inactive
KYMCSLMEATFLYNGSALRC | -1.6 ± 1.1
KYMINAYTAGWIGV | -1.41 ± 0.34
KYSIGTETVHGCLQPLCPAH | -0.095 ± 0.46
KYSTISRCAYSRIDVCGKKK | 0.488 ± 0.33
